# Measurements published in FireProtDB (doi:10.1021/bi00177a023).
# B1: Guanyl-specific ribonuclease T1, P00651 (parent)
# chain: MMYSKLLTLTTLLLPTALALPSLVERACDYTCGSNCYSSSDVSTAQAAGYQLHEDGETVGSNSYPHKYNNYEGFDFSVSSPYYEWPILSSGDVYSGGSPGADRVVFNENNQLAGVITHTGASGNNFVECT
# Variants of: B1
# Conditions: Aspergillus oryzae (strain ATCC 42149 / RIB 40); pH 5; Thermal; DSC; Sodium borate-NaOH 10 mM; NaCl 80 mM; reversible: yes; structure 1RN1; whole UniProt chain shown
Variant,Tm,heat capacity change of unfolding,unfolding enthalpy (calorimetric),unfolding enthalpy (van 't Hoff)
Q51K,61.2 °C,1.14 kcal/mol/K,122 kcal/mol,115 kcal/mol

# Same assay, conditions: Aspergillus oryzae (strain ATCC 42149 / RIB 40); pH 6; Thermal; DSC; Sodium borate-NaOH 10 mM; NaCl 80 mM; reversible: yes; structure 1RN1; whole UniProt chain shown
Variant,Tm,heat capacity change of unfolding,unfolding enthalpy (calorimetric),unfolding enthalpy (van 't Hoff)
Q51K,56.9 °C,0.99 kcal/mol/K,112 kcal/mol,110 kcal/mol

# Same assay, conditions: Aspergillus oryzae (strain ATCC 42149 / RIB 40); pH 6.5; Thermal; DSC; Sodium borate-NaOH 10 mM; NaCl 80 mM; reversible: yes; structure 1RN1; whole UniProt chain shown
Variant,Tm,heat capacity change of unfolding,unfolding enthalpy (calorimetric),unfolding enthalpy (van 't Hoff)
Q51K,54 °C,1.19 kcal/mol/K,109 kcal/mol,109 kcal/mol

# Same assay, conditions: Aspergillus oryzae (strain ATCC 42149 / RIB 40); pH 8.6; Thermal; DSC; Sodium borate-NaOH 10 mM; NaCl 80 mM; reversible: yes; structure 1RN1; whole UniProt chain shown
Variant,Tm,heat capacity change of unfolding,unfolding enthalpy (calorimetric),unfolding enthalpy (van 't Hoff)
Q51K,46.6 °C,1.15 kcal/mol/K,97.6 kcal/mol,102 kcal/mol

# Same assay, conditions: Aspergillus oryzae (strain ATCC 42149 / RIB 40); pH 9.7; Thermal; DSC; Sodium borate-NaOH 10 mM; NaCl 80 mM; reversible: yes; structure 1RN1; whole UniProt chain shown
Variant,Tm,heat capacity change of unfolding,unfolding enthalpy (calorimetric),unfolding enthalpy (van 't Hoff)
Q51K,44 °C,1.38 kcal/mol/K,94 kcal/mol,105 kcal/mol
